Reference: doi:10.1101/2020.06.12.148387

Biological target: SARS-CoV-2 Spike ectodomain (pre-fusion, with proline mutations) (SARS-CoV-2) (UniProt P0DTC2)

With EY6A IgG (antibody) the plaque reduction neutralisation test (Oxford), SARS-CoV-2, ND50 was 30 µg/mL.
